From PMC6572788 (Nature Communications, 2019)

B1: nanobody T2a (VHH)
VHH: QVQLQESGGGLVQAGGSLRLSCAASGSIFRIDAMGWYRQAPGKQRELVAHSTSGGSTDYADSVKGRFTISRDNAKNTVYLQMNSLKPEDTAVYYCNADVRTRWYASNNYWGQGTQVTVSS
notes: pXAP100 vector, C-terminal His6-cMyc tag; source: E. coli BL21(DE3) pLysS, periplasmic extract, purified (Ni-NTA, SEC); not shown: His6, C-terminal, kept; cMyc, C-terminal, kept
B2: nanobody T8 (VHH)
VHH: QVQLQESGGGLVQPGGSLRLSCAASGSTSSINAMGWYRQAPGKQREPVAISSSGGDTRYAEPVKGRFTISRDNAQNKVYLQMNSLKPEDTAVYYCWLNWGRTSVNSWGQGTQVTVSS
notes: as for B1
B3: nanobody T27 (VHH)
VHH: QVQLQESGGGLEQPGGSLRLSCATSGVIFGINAMGWYRQAPGKQRELVATFTSGGSTNYADFVEGRFTISRDNAKNTVYLQMNGLRPEDTAVYYCHATVVVSRYGLTYDYWGQGTQVTVSS
notes: as for B1
B4: nanobody T4 (VHH)
VHH: QVQLQESGGGLVQAGGSLRLSCAASGSTFAIIAMGWYRQAPGKQRELVAVISTGDTRYADSVKGRFTISRDNAKNTVYLQMDSLRPEDTAVYYCNAAVQVRDYRNYWGQGTQVTVSS
notes: as for B1
B5: nanobody D12 (VHH)
VHH: QVQLQESGGGLVQAGSSLRLACAATGSIRSINNMGWYRQAPGKQRGMVAIITRVGNTDYADSVKGRFTISRDNAKNTVYLQMNSLKPEDTATYYCHAEITEQSRPFYLTDDYWGQGTQVTVSS
notes: as for B1
B6: nanobody G3a (VHH)
VHH: QVQLQESGGGLVQAGGSLRLSCTASGRAFSWYVMGWFRQAPGKEREFVATVSGNGSRRDYADSVKGRFTISRDNAKNTVYLQMNSLKPEDTAVYYCAASSTYYYTDPEKYDYWGQGTQVTVSS
notes: as for B1

biological target: T1, 2PT-NBD1 (human CFTR NBD1, residues 387–646, S492P/A534P/I539T) (Homo sapiens (human), CFTR M470 allele …, S492P | A534P | I539T, biotin (in the ELISA; site not stated)); assay: cell-based or functional assay; settings: not given
T1 sequence (P13569 387-646 V470M/S492P/A534P/I539T): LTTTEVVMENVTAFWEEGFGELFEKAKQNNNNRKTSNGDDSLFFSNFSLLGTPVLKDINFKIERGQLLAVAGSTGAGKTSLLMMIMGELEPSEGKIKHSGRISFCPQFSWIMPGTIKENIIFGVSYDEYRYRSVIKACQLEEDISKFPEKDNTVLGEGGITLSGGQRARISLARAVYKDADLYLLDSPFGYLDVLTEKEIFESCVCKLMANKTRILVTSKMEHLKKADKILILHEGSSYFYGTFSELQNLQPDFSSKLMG

Row | Binder | increase of the apparent Tm of 2PT-NBD1 by thermal shift assay (DSF; 10 µM NBD1, 30 µM nanobody)
1 | B1 | 11.2 °C
2 | B2 | 9.1 °C
3 | B3 | 11.9 °C
4 | B4 | 12.5 °C
5 | B5 | 13.8 °C

biological target: T1, 2PT-NBD1 (human CFTR NBD1, residues …); assay: ITC; nanobody titrated into 2PT-NBD1; NanoITC, 20 °C; 20 mM Hepes pH 7.5, 150 mM NaCl, 10% glycerol, 10% ethylene glycol, 2 mM ATP, 3 mM MgCl2; one-site binding model; settings: both partners purified

Row | Kd | stoichiometry N | Binder
6 | 54 nM | 1 | B1
7 | 39 nM | 1 | B2
8 | 1100 nM | 1 | B6
9 | 25 nM | 1 | B3
10 | 37.9 nM | 1 | B4

biological target: T2, human wt-CFTR stably overexpressed in BHK-21 cells (human, UniProt P13569); assay: flow cytometry on cells; BHK-21 cells stably overexpressing human wt-CFTR or 2PT-F508del-CFTR, permeabilised with 0.01% β-DDM on ice; 50 µg ml^−1 nanobody; detection by anti-His6 or anti-cMyc antibody and anti-mouse-Alexa Fluor 488; settings: one partner purified
T2 construct: human CFTR, wild type, full length, in BHK-21 cells; also called cellular CFTR; FL-CFTR; source: BHK-21 cells, stably overexpressing; in permeabilised cells (flow cytometry) and solubilised with 1% DMNG (pull-down)
T2 sequence (P13569 whole entry): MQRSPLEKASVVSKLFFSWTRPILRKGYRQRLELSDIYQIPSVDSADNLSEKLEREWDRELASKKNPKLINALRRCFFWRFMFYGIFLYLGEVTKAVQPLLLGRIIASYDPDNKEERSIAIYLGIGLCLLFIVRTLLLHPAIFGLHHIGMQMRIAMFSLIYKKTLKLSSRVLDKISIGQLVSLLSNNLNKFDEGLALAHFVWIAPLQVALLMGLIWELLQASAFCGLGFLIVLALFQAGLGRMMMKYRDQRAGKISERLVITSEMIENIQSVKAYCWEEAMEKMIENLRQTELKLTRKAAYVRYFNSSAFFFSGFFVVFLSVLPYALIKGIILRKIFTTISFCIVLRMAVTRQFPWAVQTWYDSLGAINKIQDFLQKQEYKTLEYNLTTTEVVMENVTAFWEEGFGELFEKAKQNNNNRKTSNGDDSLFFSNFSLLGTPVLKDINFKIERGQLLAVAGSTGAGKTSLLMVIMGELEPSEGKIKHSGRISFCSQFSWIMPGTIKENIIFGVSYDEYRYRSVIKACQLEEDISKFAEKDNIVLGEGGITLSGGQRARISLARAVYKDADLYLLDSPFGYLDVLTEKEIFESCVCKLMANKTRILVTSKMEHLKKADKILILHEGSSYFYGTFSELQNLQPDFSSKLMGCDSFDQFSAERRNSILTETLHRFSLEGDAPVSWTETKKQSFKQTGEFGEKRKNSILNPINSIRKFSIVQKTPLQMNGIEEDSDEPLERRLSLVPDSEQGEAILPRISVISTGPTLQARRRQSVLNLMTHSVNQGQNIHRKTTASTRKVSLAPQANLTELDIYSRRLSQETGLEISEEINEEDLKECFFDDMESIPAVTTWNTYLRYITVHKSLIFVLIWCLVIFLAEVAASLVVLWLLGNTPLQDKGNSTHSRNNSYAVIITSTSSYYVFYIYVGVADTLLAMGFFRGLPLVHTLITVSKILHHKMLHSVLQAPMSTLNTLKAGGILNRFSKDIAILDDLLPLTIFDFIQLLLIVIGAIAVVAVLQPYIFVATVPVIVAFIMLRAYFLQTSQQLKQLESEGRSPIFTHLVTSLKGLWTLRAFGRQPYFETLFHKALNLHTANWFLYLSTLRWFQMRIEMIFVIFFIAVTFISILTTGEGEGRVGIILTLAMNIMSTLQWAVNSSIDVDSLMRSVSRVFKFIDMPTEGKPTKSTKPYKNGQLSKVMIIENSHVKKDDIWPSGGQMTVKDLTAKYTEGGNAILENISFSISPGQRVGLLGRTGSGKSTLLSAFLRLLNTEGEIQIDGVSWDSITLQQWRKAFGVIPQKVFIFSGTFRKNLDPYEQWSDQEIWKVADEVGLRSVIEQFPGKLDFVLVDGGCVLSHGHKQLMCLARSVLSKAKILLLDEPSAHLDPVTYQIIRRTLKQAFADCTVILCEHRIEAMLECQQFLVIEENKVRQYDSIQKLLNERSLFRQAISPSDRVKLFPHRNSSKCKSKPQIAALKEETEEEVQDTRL

Row | binding result | Binder
11 | binds | B1
12 | binds | B2
13 | binds | B6
14 | binds | B3
15 | binds | B4
16 | binds | B5
